Source: PMC9543038 (Chembiochem, 2022)
Where no end group is shown, it is not given here. [ ]: non-standard residue; d: D form. pT = C[C@@H](OP(=O)(O)O)[C@H](N)C(=O)O; FAM = fluorescein

T1: FAM‐ERα‐pTV peptide
T1 peptide: {FAM}-KYYITGEAEGFPA[pT]V


Columns and labels:
FAM‐ERα‐pTV peptide [1] = target: T1, FAM‐ERα‐pTV peptide; experiment: fluorescence polarisation
FAM‐ERα‐pTV peptide [2] = target: T1, FAM‐ERα‐pTV peptide; experiment: fluorescence polarisation
FAM‐ERα‐pTV peptide [3] = target: T1, FAM‐ERα‐pTV peptide; experiment: fluorescence polarisation
cross-linking = target: the molecule itself; experiment: cross-linking

pEC50 with fragment 2 (1 mM) (FAM‐ERα‐pTV peptide [1])	pEC50 with FC-A (100 μM) (FAM‐ERα‐pTV peptide [2])	pEC50 (FAM‐ERα‐pTV peptide [3])	Binder	stoichiometry N (cross-linking)
5.92	6.16	5.13	recombinant N‐terminally GST‐tagged 14‐3‐3η (natural protein) MGDREQLLQRARLAEQAERYDDMASAMKAVTELNEPLSNEDRNLLSVAYKNVVGARRSSWRVISSIEQKTMADGNEKKLEKVKAYREKIEKELETVCNDVLSLLDKFLIKNCNDFQYESKVFYLKMKGDYYRYLAEVASGEKKNSVVEASEAAYKEAFEISKEQMQPTHPIRLGLALNFSVFYYEIQNAPEQACLLAKQAFDDAIAELDTLNEDSYKDSTLIMQLLRDNLTLWT	
			His‐14‐3‐3γ (natural protein, UniProt P61981 1-247, looked up) MVDREQLVQKARLAEQAERYDDMAAAMKNVTELNEPLSNEERNLLSVAYKNVVGARRSSWRVISSIEQKTSADGNEKKIEMVRAYREKIEKELEAVCQDVLSLLDNYLIKNCSETQYESKVFYLKMKGDYYRYLAEVATGEKRATVVESSEKAYSEAHEISKEHMQPTHPIRLGLALNYSVFYYEIQNAPEQACHLAKTAFDDAIAELDTLNEDSYKDSTLIMQLLRDNLTLWTSDQQDDDGGEGNN	2
